We go through one molecule from paper PMC5148137 (Biochemical and biophysical research communications, 2012).

This assay deals with Cul3(1–383)-(His)6 (co-expressed) (human, UniProt Q13618 1-383). Nature of the assay: AUC.

By stoichiometry N is commonly meant a count of units in the complex or per binding partner.

Sequence of Cul3(1–383)-(His)6 (co-expressed) (Q13618 1-383): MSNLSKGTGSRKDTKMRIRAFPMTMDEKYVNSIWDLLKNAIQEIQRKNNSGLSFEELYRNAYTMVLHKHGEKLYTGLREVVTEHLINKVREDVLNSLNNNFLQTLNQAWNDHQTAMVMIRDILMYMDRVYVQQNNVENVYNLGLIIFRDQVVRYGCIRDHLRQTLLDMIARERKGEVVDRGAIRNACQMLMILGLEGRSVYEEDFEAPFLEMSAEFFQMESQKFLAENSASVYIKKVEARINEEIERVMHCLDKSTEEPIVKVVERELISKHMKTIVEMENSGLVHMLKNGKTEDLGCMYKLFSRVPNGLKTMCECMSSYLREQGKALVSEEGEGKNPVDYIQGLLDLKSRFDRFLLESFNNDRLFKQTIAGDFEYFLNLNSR

B1: MBP-KBTBD13(6–132) (domain or fragment, human, UniProt C9JR72 6-132, looked up)
chain: QTLVQVWVGGQLFQADRALLVEHCGFFRGLFRSGMRETRAAEVRLGVLSAGGFRATLQVLRGDRPALAAEDELLQAVECAAFLQAPALARFLEHNLTSDNCALLCDAAAAFGLRDVFHSAALFICDG
Consider B1, for which the “stoichiometry N” value is 1.
